Results published in patent US20210253662A1, “Long-Acting Recombinant GLP1-Fc-CD47 Protein and Preparation and Use Thereof” (ZHEJIANG PALO ALTO PHARMACEUTICALS, INC, priority 2018, published 2021).

Assays:
[1] = background statement; cited from earlier work
[2] = tested on: Male C57BL/KsJ mice; test: Intraperitoneal glucose tolerance test (IPGTT) after a single s.c. dose; assay type: in vivo; conditions: s.c. 30 nmol/kg
Procedure: Male C57BL/KsJ mice of 6 weeks old are randomized into a vehicle control group, a positive drug group and a test protein group according to body weights and blood glucose levels, and are subcutaneously (s.c.) injected with corresponding drugs. An intraperitoneal glucose tolerance test (IPGTT) is performed after dosing for a period of time following the steps as follows: fast the mice for 6 h, collect blood samples from tail veins of the mice in each group before the test, measure the blood glucose levels with a Roche ACCU-CHEK blood glucose meter and record the results at a −60 min time point; measure blood glucose levels again at 0 min in each group before intraperitoneally injecting 2 g/kg glucose (body weight), afterwards measure and record blood glucose levels of mice in each group at 15 min, 30 min, 60 min and 120 min. An IPGTT curve is plotted based on the blood glucose levels to calculate the areas under curve (AUC0-120 min (mM*min)), and the differences are statistically analyzed using the t-test.

[3] = Stability in rat serum in vitro, read as remaining activity in activating hGLP-1R; assay type: in vitro ADME; conditions: 37° C., activity at 0.03 nM, day 0 as 100%
Source text: The decay rate of protein activity indirectly reflects the stability of the protein in the serum.

[4] = target: human GLP-1 receptor (human, UniProt P43220 24-463); test: cell-based or functional assay

Molecule | Activity of Activated hGLP-1R (relative value from EC50, CRE-NanoLuc luciferase reporter in AD293 cells; 100% for GLP1 (7-37)) [4] | other results
L1: L1 protein (dulaglutide, SEQ ID NO.: 11), GLP-1-Fc fusion protein, positive control, dimer [reference compound] | – | half-life in vivo [1]: 108 to 113 h; Decrease of area under curve (AUC) in blood glucose vs solvent control group ([2]; seven days after a single dose, IPGTT AUC0-120 min): 14.8%; Hypoglycemic activity (AUC) ten days post-dose ([2]; ten days after a single dose, IPGTT): no significant decrease; Decrease in activity after 7 days of incubation in serum [3]: 33.3%
HGEGTFTSDVSSYLEEQAAKEFIAWLVKGGG [Gly8-Glu22-Gly36-GLP1(7-37)] | 121% | –
HGEGTFTSDVSSYLEEQAAKEFIAWLVRGGG [Gly8-Glu22-Arg34-Gly36-GLP1(7-37)] | 163% | –
HGEGTFTSDVSSYLEEQAAKEFIAWLVRGVG [Gly8-Glu22-Arg34-Val36-GLP1(7-37)] | 142% | –
HGEGTFTSDVSSYLEEQAAKEFIAWLVRGLG [Gly8-Glu22-Arg34-Leu36-GLP1(7-37)] | 113% | –
HGEGTFTSDVSSYLEEQAAKEFIAWLVRGAG [Gly8-Glu22-Arg34-Ala36-GLP1(7-37)] | 168% | –
